Data as given in paper PMC12881670, “Investigation into ligand selectivity and bias at the formyl peptide receptor family” (The Journal of Pharmacology and Experimental Therapeutics, 2025).
Where no end group is shown, it is not given here. The star is where a group is joined. Palmitoyl = CCCCCCCCCCCCCCCC(=O)*

Tests used:
Hs_FPR1 [1] = target: T1, Hs_FPR1 (Homo sapiens, UniProt P21462); test: BRET receptor-RLuc8 interaction with Venus-mGsi; format: cell-based
T1 construct: expressed in transfected cells
T1 sequence (P21462 1-350): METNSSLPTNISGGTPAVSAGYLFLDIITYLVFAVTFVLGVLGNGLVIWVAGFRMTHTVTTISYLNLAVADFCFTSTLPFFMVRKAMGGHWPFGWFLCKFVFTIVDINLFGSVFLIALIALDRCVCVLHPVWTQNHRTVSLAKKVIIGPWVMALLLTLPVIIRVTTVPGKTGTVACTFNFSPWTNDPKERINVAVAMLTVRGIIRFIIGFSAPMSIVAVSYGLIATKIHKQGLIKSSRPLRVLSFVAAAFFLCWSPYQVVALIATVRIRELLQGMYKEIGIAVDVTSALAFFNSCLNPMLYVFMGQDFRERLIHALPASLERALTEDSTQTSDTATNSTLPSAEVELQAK
Procedure: (§1) BRET1 assays to measure FPR interaction with Venus-mGsi and Arrestin 3-yellow fluorescent protein (YFP) were performed as previously described.[31]^,[32] Briefly, all FPRs C-terminally fused to Renilla Luciferase (donor, RLuc8) were transiently transfected along with either Venus-mGsi or YFP-Arrestin 3 (acceptor) at a ratio of 1:4. 24 hours post transfection, cells were replated into white-walled, 96-well plates and cultured for a further 24–48 hours. On the day of experimentation, growth media was aspirated and replaced with 80 μl Hanks Buffered Saline Solution and equilibrated for 30 minutes. Coelenterazine h was added to each well to a final concentration of 5 μM for 5 minutes before the addition of each compound, and the plate was incubated for a further 10 minutes at 37 °C before being read on a ClarioStar Plus, with luminescence measured at 480/20 nm (donor) and 530/20 (acceptor). The BRET ratio (acceptor/donor) was determined, and the background (untreated) subtracted to give the N-BRET value.
(§2) All data were analyzed using GraphPad Prism using the nonlinear regression log(agonist) versus response (3 parameters) function for all assays, except binding, which was analyzed using the One site-FitlogIC50 function. Bias calculations were carried out following IUPHAR guidelines as described,[27]^,[37] and data were presented as the Δ Activity ratio (Log[EmaxB/EC50B])-(Log[EmaxA/EC50A]).

Hs_FPR2 [2] = target: T2, Hs_FPR2 (Homo sapiens, UniProt P25090); test: BRET receptor-RLuc8 interaction with Venus-mGsi; format: cell-based
T2 construct: expressed in transfected cells
T2 sequence (P25090 1-351): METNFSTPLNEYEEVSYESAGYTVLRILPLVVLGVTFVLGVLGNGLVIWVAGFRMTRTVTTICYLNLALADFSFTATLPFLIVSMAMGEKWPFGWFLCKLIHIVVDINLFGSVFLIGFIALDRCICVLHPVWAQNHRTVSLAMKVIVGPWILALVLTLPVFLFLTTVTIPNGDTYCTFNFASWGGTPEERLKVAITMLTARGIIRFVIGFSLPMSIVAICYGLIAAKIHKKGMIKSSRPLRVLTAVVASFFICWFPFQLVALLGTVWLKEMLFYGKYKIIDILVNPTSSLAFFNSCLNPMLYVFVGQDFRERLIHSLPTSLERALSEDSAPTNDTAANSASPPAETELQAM
Procedure: as §1, §2

Mm_Fpr1 [3] = target: T3, Mm_Fpr1 (Mus musculus, UniProt P33766); test: BRET receptor-RLuc8 interaction with Venus-mGsi; format: cell-based
T3 construct: expressed in transfected cells
T3 sequence (P33766 1-364): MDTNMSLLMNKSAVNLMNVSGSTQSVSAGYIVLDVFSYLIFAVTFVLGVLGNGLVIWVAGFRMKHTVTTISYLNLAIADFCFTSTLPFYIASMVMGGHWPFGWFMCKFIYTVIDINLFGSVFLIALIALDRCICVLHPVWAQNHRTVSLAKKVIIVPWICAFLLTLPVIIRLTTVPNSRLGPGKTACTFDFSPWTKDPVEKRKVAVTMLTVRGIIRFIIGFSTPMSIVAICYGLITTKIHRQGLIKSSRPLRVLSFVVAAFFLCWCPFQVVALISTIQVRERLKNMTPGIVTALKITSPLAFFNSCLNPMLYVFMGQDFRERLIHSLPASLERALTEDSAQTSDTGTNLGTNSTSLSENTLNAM
Procedure: as §1, §2

Mm_Fpr2 [4] = target: T4, Mm_Fpr2 (Mus musculus, UniProt O88536); test: BRET receptor-RLuc8 interaction with Venus-mGsi; format: cell-based
T4 construct: expressed in transfected cells
T4 sequence (O88536 1-351): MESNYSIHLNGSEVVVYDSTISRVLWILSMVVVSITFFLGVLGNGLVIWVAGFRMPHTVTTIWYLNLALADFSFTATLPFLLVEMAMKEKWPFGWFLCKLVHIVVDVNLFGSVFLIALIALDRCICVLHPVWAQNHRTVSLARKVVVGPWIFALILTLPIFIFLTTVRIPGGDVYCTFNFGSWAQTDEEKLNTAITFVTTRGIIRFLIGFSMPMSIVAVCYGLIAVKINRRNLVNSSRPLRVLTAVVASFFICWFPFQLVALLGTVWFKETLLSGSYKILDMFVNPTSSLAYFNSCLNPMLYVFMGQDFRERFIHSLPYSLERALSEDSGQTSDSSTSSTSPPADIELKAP
Procedure: as §1, §2

Hs_FPR1 [5] = target: T1, Hs_FPR1; test: ERK1/2 phosphorylation by Western blotting; format: cell-based
Procedure: (§3) ERK phosphorylation was detected by Western blotting as previously described.[30] Briefly, HEK293 cells stably expressing FLAG-tagged FPRs were plated into 12-well culture plates until 90% confluent. On the day of the experiment, culture media was replaced with serum-free Dulbecco’s modified Eagle’s medium and incubated for 2 hours before stimulation with the indicated compounds. After 7 minutes, the media was removed and stimulation terminated by the addition of 100 μl sample buffer (0.5% SDS, Tris (pH 6.8), glycerol, at >90 °C).
as §2

Hs_FPR2 [6] = target: T2, Hs_FPR2; test: ERK1/2 phosphorylation by Western blotting; format: cell-based
Procedure: as §3, §2

Mm_Fpr1 [7] = target: T3, Mm_Fpr1; test: ERK1/2 phosphorylation by Western blotting; format: cell-based
Procedure: as §3, §2

Mm_Fpr2 [8] = target: T4, Mm_Fpr2; test: ERK1/2 phosphorylation by Western blotting; format: cell-based
Procedure: as §3, §2

Hs_FPR1 [9] = target: T1, Hs_FPR1; test: BRET receptor-RLuc8 interaction with Arrestin 3-YFP; format: cell-based
Procedure: as §1, §2

Hs_FPR2 [10] = target: T2, Hs_FPR2; test: as above; format: cell-based
Procedure: as §1, §2

Mm_Fpr1 [11] = target: T3, Mm_Fpr1; test: as above; format: cell-based
Procedure: as §1, §2

Mm_Fpr2 [12] = target: T4, Mm_Fpr2; test: as above; format: cell-based
Procedure: as §1, §2

Mm_Fpr1 [13] = target: T3, Mm_Fpr1; test: Internalization of FLAG-tagged receptors by flow cytometry; format: cell-based; settings: Mm_Fpr1, 30 min, relative to 1 μM WKYMVm
Procedure: Internalization of FPRs was measured by flow cytometry.[30] Briefly, cells were incubated with Alexa Fluor 657 conjugated M1 antiflag antibody (Sigma-Aldrich Cat# F3040, RRID:AB_439712) for 30 minutes at 37 °C to label surface receptors. Cells were then incubated with the indicated concentration of ligand before washing in PBS/0.04% EDTA to remove any remaining surface antibody. Remaining fluorescence was then measured using flow cytometry on either a BD FACScalibur or Attune, recording 5000 gated events. […] As a control, some samples were left untreated, and “strip only” was measured as a readout of constitutive endocytosis, and this value was subtracted from the data. Vehicle control (0.1% DMSO) had no effect on internalization of receptors.
as §2

[14] = system: formyl peptide receptor family (Hs_FPR1, Hs_FPR2, Mm_Fpr1, Mm_Fpr2); test: Summary of main findings: receptor subtype selectivity and ligand bias across all readouts; design: species or system human and mouse; settings: summary grade of ligand bias relative to WKYMVm; key not given
Description: To determine ligand bias, a reference ligand is required, that is, “balanced” for the pathways tested.[37] […] We then used measurements of the activity ratio (Log (Emax/EC50)) for each receptor, ligand, and pathway in an attempt to observe any ligand bias (Fig. 6).

FPR1 = settings: at 100 nM; cited from earlier work
[15] = target: T5, FLAG-tagged human FPR2 (Hs_FPR2) (human, UniProt P25090 1-351); test: cell-based or functional assay
T5 sequence (looked up): T2 sequence (P25090 1-351)

[16] = target: T6, FLAG-Hs_FPR2 C-terminally fused to Renilla Luciferase 8 (human, UniProt P25090 1-351); test: cell-based or functional assay
T6 sequence (looked up): T2 sequence (P25090 1-351)

[17] = target: T7, FLAG-Mm_Fpr2 C-terminally fused to Renilla Luciferase 8 (mouse, UniProt O88536 1-351); test: cell-based or functional assay
T7 sequence (looked up): T4 sequence (O88536 1-351)

[18] = target: T8, FLAG-tagged mouse Fpr2 (Mm_Fpr2) (mouse, UniProt O88536 1-351); test: cell-based or functional assay
T8 sequence (looked up): T4 sequence (O88536 1-351)

[19] = target: T5, FLAG-tagged human FPR2 (Hs_FPR2); test: cell-based or functional assay; remark: listed apart in the source
[20] = target: T6, FLAG-Hs_FPR2 C-terminally fused to …; test: cell-based or functional assay; remark: listed apart in the source
[21] = target: T7, FLAG-Mm_Fpr2 C-terminally fused to …; test: cell-based or functional assay; remark: listed apart in the source
[22] = target: T8, FLAG-tagged mouse Fpr2 (Mm_Fpr2); test: cell-based or functional assay; remark: listed apart in the source
[23] = target: T8, FLAG-tagged mouse Fpr2 (Mm_Fpr2); test: flow cytometry on cells; competition binding: HEK293 cells stably expressing the receptor, lifted in PBS, on ice 90 min with 10 nM K(5/6-FAM)-WKYMVm and increasing unlabeled ligand; mean fluorescence of 5000 cells as % of that without competitor; One site-Fit logIC50
[24] = target: T5, FLAG-tagged human FPR2 (Hs_FPR2); test: as above

`CSCC[C@H](NC(=O)[C@@H](NC(=O)[C@H](CCSC)NC(=O)[C@H](Cc1ccc(O)cc1)NC(=O)[C@H](CCCCN)NC(=O)[C@@H](N)Cc1c[nH]c2ccccc12)C(C)C)C(N)=O` [WKYMVM] gave an Emax (Hs_FPR1 [1]) of 44.1%, an Emax (Hs_FPR2 [2]) of 79.2% and an Emax (Mm_Fpr1 [3]) of 37.5%. For the same molecule, the Emax (Mm_Fpr2 [4]) was 87.9%, the Emax at 1 µM (Hs_FPR1 [5]) was 141% and the Emax at 1 µM (Hs_FPR2 [6]) was 125%. It also gave an Emax at 1 µM (Mm_Fpr1 [7]) of 118%, an Emax at 1 µM (Mm_Fpr2 [8]) of 128% and an Emax (Hs_FPR1 [9]) of 75%. It also gave an Emax (Hs_FPR2 [10]) of 94.8%, an Emax (Mm_Fpr1 [11]) of 83.1% and an Emax (Mm_Fpr2 [12]) of 94.3%. The “agonist-induced internalization (words)” value (Mm_Fpr1 [13]) was “full agonists”, the Bias [14] was “No” and the “arrestin recruitment to FPR1, Pathhunter” value (FPR1) was “neither WKYMVM nor ACT-389949 resulted in recruitment”.

B1: F2Pal10 (Pal-Pal-KIHKKGMIKS) (peptide)
peptide: {Palmitoyl-Palmitoyl}-KIHKKGMIKS
notes: Pal is printed twice; the text speaks of N-terminal palmitoylation as the last step of the synthesis; also called pepducin; source: synthetic peptide (Fmoc solid phase, purified by preparative RP-HPLC)
With B1 the “TruPath BRET: dissociation of Gαi2 from β3γ9, EC50 (receptor not given)” value [15] was 130 nM, the “BRET of receptor-RLuc8 with Venus-mGsi: Emax (% of 1 μM WKYMVm)” value [16] was 19.4% and the “BRET of receptor-RLuc8 with Venus-mGsi: Log EC50 (M)” value [16] was -6.78 log M. For the same molecule, the “BRET of receptor-RLuc8 with Venus-mGsi: Emax (% of 1 μM WKYMVm)” value [17] was 24.2%, the “BRET of receptor-RLuc8 with Venus-mGsi: Log EC50 (M)” value [17] was -6.78 log M and the “ERK1/2 phosphorylation (Western blot): Emax (% of 1 μM WKYMVm)” value [18] was 141%. For the same molecule, the “ERK1/2 phosphorylation (Western blot): Log EC50 (M)” value [18] was -7.27 log M, the “ERK1/2 phosphorylation (Western blot): Emax (% of 1 μM WKYMVm)” value [19] was 80.8% and the “ERK1/2 phosphorylation (Western blot): Log EC50 (M)” value [19] was -7.47 log M. For the same molecule, the “BRET of receptor-RLuc8 with Arrestin 3-YFP: Emax (% of 1 μM WKYMVm)” value [20] was 25.5%, the “BRET of receptor-RLuc8 with Arrestin 3-YFP: Log EC50 (M)” value [20] was -6.55 log M and the “BRET of receptor-RLuc8 with Arrestin 3-YFP: Emax (% of 1 μM WKYMVm)” value [21] was 33.4%. The “BRET of receptor-RLuc8 with Arrestin 3-YFP: Log EC50 (M)” value [21] was -6.58 log M, the “receptor internalization (flow cytometry): Emax (% of 1 μM WKYMVm)” value [22] was 12.3% and the “receptor internalization (flow cytometry): Log EC50 (M)” value [22] was -10.5 log M. For the same molecule, the “Log IC50” value [23] was -5.38 log M, the “Max Comp (%)” value [23] was 100% and the “Log IC50” value [24] was -5.27 log M. The “Max Comp (%)” value [24] was 100%.
